From article PMC5645793 (Journal of toxicology and environmental health. Part A, 2009)

Tests used:
human lens ALDH1A1 [1] = target: T1, human lens ALDH1A1 (Homo sapiens, UniProt P00352); format: biochemical
T1 sequence (P00352 1-501): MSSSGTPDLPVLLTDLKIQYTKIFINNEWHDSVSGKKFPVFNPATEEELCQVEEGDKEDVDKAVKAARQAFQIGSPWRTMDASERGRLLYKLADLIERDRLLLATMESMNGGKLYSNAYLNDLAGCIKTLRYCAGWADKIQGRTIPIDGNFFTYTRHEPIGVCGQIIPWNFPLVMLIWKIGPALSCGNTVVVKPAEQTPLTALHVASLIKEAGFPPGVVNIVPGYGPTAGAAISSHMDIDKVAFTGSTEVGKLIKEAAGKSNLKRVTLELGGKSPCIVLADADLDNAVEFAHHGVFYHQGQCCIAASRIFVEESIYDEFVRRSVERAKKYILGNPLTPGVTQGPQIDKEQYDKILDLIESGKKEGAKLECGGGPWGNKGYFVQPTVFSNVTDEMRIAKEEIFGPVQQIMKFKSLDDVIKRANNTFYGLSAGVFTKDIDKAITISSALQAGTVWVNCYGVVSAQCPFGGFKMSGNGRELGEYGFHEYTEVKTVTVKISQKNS

human lens ALDH1A1 [2] = target: T1, human lens ALDH1A1; format: biochemical; remark: listed apart in the source
purified protein [3] = substrate: CCCCCC(O)C=CC=O; experiment: purified protein; details: NAD+ probably both the substrates fit the active site well
purified protein [4] = substrate: CCC=O; experiment: purified protein; format: biochemical, Homo sapiens; details: NAD+
purified protein [5] = substrate: NC(=O)c1ccc[n+]([C@@H]2O[C@H](COP(=O)([O-])OP(=O)(O)OC[C@H]3O[C@@H](n4cnc5c(N)ncnc54)[C@H](O)[C@@H]3O)[C@@H](O)[C@H]2O)c1; experiment: purified protein; format: biochemical, Homo sapiens; details: may interfere with NO binding to catalytic site; varied: cofactor
purified protein [6] = substrate: O=CCC=O; experiment: purified protein; format: biochemical, Homo sapiens; details: NAD+ probably both the substrates fit the active site well
purified protein [7] = substrate: O=Cc1ccccc1; experiment: purified protein; format: biochemical, Homo sapiens; details: NAD+

CC(C)=CCCC(C)=CC=O [citral, 3,7-dimethyl-2,6-octadienal] was tested, and the IC50 (human lens ALDH1A1 [1]) was 55 µM.

For CC/C(=C(/CC)c1ccc(O)cc1)c1ccc(O)cc1 [diethylstilbestrol], the EC50 (human lens ALDH1A1 [2]) was 11.3 µM.

B1: human lens ALDH1A1 (Homo sapiens) (protein)
chain: T1 sequence (P00352 1-501)
With B1 the Km (purified protein [3]) was 4.8 ± 0.12 µM, the Vmax (purified protein [3]) was 0.135 ± 0.0152 µmol/min/mg and the Km (purified protein [4]) was 121.4 ± 6.7 µM. The Vmax (purified protein [4]) was 0.445 µmol/min/mg, the Km (purified protein [5]) was 59.4 ± 2.4 µM and the Vmax (purified protein [5]) was 0.15 µmol/min/mg. It also gave a Km (purified protein [6]) of 3.5 ± 0.6 µM, a Vmax (purified protein [6]) of 0.382 µmol/min/mg and a Km (purified protein [7]) of 143.2 ± 6.4 µM. For the same molecule, the Vmax (purified protein [7]) was 0.75 µmol/min/mg.
